These results are taken from publication PMC8026080, “Functional regulation of the structure-specific endonuclease FEN1 by the human cytomegalovirus protein IE1 suggests a role for the re-initiation of stalled viral replication forks” (PLoS Pathogens, 2021).

For test [1], the target named is FLAG-FEN1 (full length) (UniProt P39748).
Test [2] addresses FLAG-FEN1 (full length) (UniProt P39748 1-380). Nature of the test: cell-based or functional assay.

Sequence of FLAG-FEN1 (full length) (UniProt P39748) (P39748 whole entry): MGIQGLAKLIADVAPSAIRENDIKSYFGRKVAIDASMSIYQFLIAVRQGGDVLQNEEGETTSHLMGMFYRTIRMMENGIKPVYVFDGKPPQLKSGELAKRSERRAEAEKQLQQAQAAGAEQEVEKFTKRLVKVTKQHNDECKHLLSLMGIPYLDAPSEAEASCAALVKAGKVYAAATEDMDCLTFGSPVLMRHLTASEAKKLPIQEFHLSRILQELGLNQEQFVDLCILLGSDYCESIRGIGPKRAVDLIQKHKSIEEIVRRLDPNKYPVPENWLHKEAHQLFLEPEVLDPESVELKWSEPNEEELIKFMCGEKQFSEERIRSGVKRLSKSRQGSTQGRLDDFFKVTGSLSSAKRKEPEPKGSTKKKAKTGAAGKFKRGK
Sequence of FLAG-FEN1 (full length) (UniProt P39748 1-380) (P39748 whole entry): as above

As for “HCMV immediate early protein 1 (IE1) expressed in AD169-infected cells (natural protein)”, the normalized pFEN1 (Ser187)/FEN1 ratio by densitometry of Western blots, 293T cells transfected with FLAG-FEN1 and untagged IE1 wt (FEN1 alone set to 1) in test [1] was 2.4.

B1: Myc-IE1 1–382 5x mut (domain or fragment, human cytomegalovirus, UniProt P13202 1-382, looked up)
chain: MESSAKRKMDPDNPDEGPSSKVPRPETPVTKATTFLQTMLRKEVNSQLSLGDPLFPELAEESLKTFEQVTEDCNENPEKDVLAELVKQIKVRVDMVRHRIKEHMLKKYTQTEEKFTGAFNMMGGCLQNALDILDKVHEPFEEMKCIGLTMQSMYENYIVPEDKREMWMACIKELHDVSKGAANKLGGALQAKARAKKDELRRKMMYMCYRNIEFFTKNSAFPATTNGCSQAMAALQALPQCSPDEIMAYAQKIFKILDEERDKVLTHIDHIFMDILTTCVETMCAEYKVTSDACMATMYGGISLLSEFCAVLCCYVLEETSVMLAKRPLITKPEVISVMKRRIEEICMKVFAQYILGADPLRVCSPSVDDLRAIAEESDEEE
With B1, the “normalized pFEN1 (Ser187)/FEN1 ratio by densitometry of Western blots, 293T cells transfected with FLAG-FEN1 and full-length IE1 5x mut (FEN1 alone set to 1)” value in test [2] amounted to 1.5 ratio.
